B1: mAb02 (8B3H4) (antibody, human IgG1, kappa, V domains shown)
VH: QVQVQQPGAELVKPGASVRLSCKASGYTFTTYWMHWVKQRPGQGLEWIGMIHPNSDSINYNEKFKSKATLIVDKSSSTFYMQLSSLTSEDSAVYYCARTDGYYAPYFAMDYWGQGTSVTVSS
VL: DIQMTQTTSSLSASLGDRVTISCRASQDIRDNLNWYQQKPDGTVKLLIYYKSRSHSGVPSRFSGSGSGTDYSLTISNLEQEDIATYFCQQGNTLPFTFGSGTKLEIKR
notes: Tested as the murine hybridoma antibody
B2: mAb06 (26E7D2) (antibody, human IgG1, kappa, V domains shown)
VH: QVQLQQPGAELVKPGASVKLSCKVSGYTFTSYWIHWVKQRPGRGLEWIGRIDPISGGANYNEKFKTKATLTVDKPSSTAYMQLSSLTSEDSAVYYCARWGGGDYWGHGTTLTVSS
VL: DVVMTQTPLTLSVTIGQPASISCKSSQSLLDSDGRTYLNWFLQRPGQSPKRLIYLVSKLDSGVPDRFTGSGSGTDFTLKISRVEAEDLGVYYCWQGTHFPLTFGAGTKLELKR
notes: as for B1
B3: mAb07 (27C5E11) (antibody, V domains shown)
VH: QVQLQQPGAELVKPGASVKLSCKASGYTFTSYWMHWVKQRPGQGLEWIGMIHPNGDSTNYNEKFKTKATLTVDKSSSTAYMQLSSLTSEDSAVYYCARTDGYYAPYFAMDYWGQGTSVTVSS
VL: DIQMTQSTSSLSASLGDRVTISCRASQDINNYLNWYQQKPDGTVKLLIYYTSRLHLGVPSRFSGSGSGTDYSLTISNLEQEDIATYFCQQGNTLPFTVGSGTKLEIK
B4: mAb020 (52H8C4) (antibody, human IgG1, kappa, V domains shown)
VH: EVMLVESGGGLVKPGGSLKLSCAASGFTFSSYTMSWVRQTPEKRLEWVATITGGGGDTFYPDSVKGRFTISRDNAKNTLYLQVSSLRSEDTAVYHCARQYYDYDGGAMDYWGQGTSVTVSS
VL: DIVLTQSPASLAVSLGQRAIISCKASQSVSFAGTGLMHWYQQKPGQQPKLLIYRASNLEAGVPTRFSGSGSRTDFTLNIHPVEEDDAATYYCQQSREYPRTFGGGTKLEIKR
notes: as for B1
B5: mAb023 (75H6C7) (antibody, V domains shown)
VH: QAQLQQPGAELVMPGASVKLSCKASGYTFTNYWMNWMKQRPGQGLEWIGEIDPSDSDKNYNQKFKDKATLTVDKSSSTAYMQLSSLTSEDSAVYYCAGGYYGMDFWGQGTSVTVSS
VL: DVVMTQTPLSLPVSLGDQASISCRSSQSLENSKGNTYLNWYVQKPGQSPQLLIYRVSTRFSGVLDRFSGSGSGTDFTLKISRVEAEDLGVYFCLQLTHVPFTFGSGTKLEIK

biological target: FMC63-scFv-mFc protein; assay: ELISA, plate coated with FMC63-scFv-mFc, biotin-labelled FMC63-scFv-mFc for detection

Point of comparison: B5, EC50 0.0512 µg/mL. Against it:
- B1 — 2.2-fold lower, 0.023 µg/mL
- B2 — 1.7-fold lower, 0.0299 µg/mL
- B3 — 1.9-fold higher, 0.099 µg/mL
- B4 — 2.2-fold higher, 0.113 µg/mL
